Measured values published in paper doi:10.1101/2022.03.13.484121.

Key:
[1] = biological target: meprin α R372T, mature (activated) form (human (from the printed accession)) (UniProt Q16819); experiment: MALDI-TOF mass spectrometry
[2] = biological target: pro-meprin α C308A (human (from the printed accession)) (UniProt Q16819); experiment: SEC-MALS

Row | stoichiometry N [1] | stoichiometry N [2] | Substance
1 | 2 | – | meprin α R372T, mature (activated) form (from UniProt Q16819 22-600) (enzyme)
2 | – | 2 | pro-meprin α C308A (from UniProt Q16819 22-600) (enzyme)
